This passage reports Mean fluorescence intensity and OD450 results from patent publication US20220033501A1 (SHANGHAI PHARMAEXPLORER, published 2022).

B1: 18D2H2 fully human TIM-3 antibody (human IgG4, kappa) (antibody, V domains shown)
VH: EVQLVESGGDLVQPGGSLRLSCAASGFTFSTYWMTWVRQAPGRGLEWVANIKQDGSAKYYVDSVKGRFTLSRDDAKNSLYLQMNSLRAEDTAVYYCARGSNWFDYWGQGTLVTVSS
VL: ETVMTQSPATLSVSPGERATLSCRANQNVYSNLAWYQQKPGQAPRLLIYDASTRATGFPARFSGSGSGTEFTLTISSLQSEDFAVYYCQQYNNWPLTFGGGTKVEIK
B2: 34B6D8 fully human TIM-3 antibody (human IgG4, kappa) (antibody, V domains shown)
VH: B1 VH with D10G, R43K, G44R, D54G, S56G, A57D, L70I, R72T, D74N, Y105P
VL: EIVMTQSPATLSMSPGERATLSCRASQSVYDNLAWYQQKPGQAPRLLIYGASTRATGIPARFSGSGSGTEFTLTISSLQSEDFALYYCQQYTHWPITFGQGTRLEIK
B3: 39E5H1 fully human TIM-3 antibody (human IgG4, kappa) (antibody, V domains shown)
VH: EVQLVESGGGLVQPGGSLRLSCAASGFTFSSYWMSWVRQAPGKGLEWVANIKRGGSERYYVDSVKGRFTISGDNAKNSVYLQMNSLRAEDTAVYYCARGSNWFDPWGQGTLVTVSS
VL: B2 VL with I2T, T10I, M13V, D31S, P40L, G50D, L85V, T92N, H93N
B4: 7A4F10 fully human TIM-3 antibody (human IgG4, kappa) (antibody, V domains shown)
VH: EVQLLESGGGLVQPGGSLRLSCAASGFTFRTHLISWVRQAPGKGLEWVAAITGSGGSTYYADSVKGRFIISRDNSKNTLFLQMNSLRAEDTAVYYCAKDGGSGSYDDFWGQGTLVTVSS
VL: ETVLTQSPVTLSLSPGERATLSCRASQSVGSYLAWYQQKPGQAPRLLIYDASNRATGIPARFSGSGSGTDFTLTISSLEPEDFAVYYCQQRSNWPPTFGQGTKVEIK

Positions count from the first letter of the chain named.

The target of one test is T1, human TIM-3 on CHOK1 stable cell line (CHOK1-hTIM-3) (human, UniProt Q8TDQ0 22-301).
T1 sequence: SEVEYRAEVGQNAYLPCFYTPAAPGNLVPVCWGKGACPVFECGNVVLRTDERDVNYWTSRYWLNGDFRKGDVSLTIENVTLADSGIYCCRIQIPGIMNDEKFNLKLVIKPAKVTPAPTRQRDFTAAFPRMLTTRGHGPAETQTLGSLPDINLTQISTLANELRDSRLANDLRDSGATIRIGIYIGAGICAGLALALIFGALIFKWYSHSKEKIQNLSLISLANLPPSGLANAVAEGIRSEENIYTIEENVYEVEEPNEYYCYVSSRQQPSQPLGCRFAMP
Nature of the test: FACS, CHOK1-hTIM-3 cells, 0.064 nM antibody. Background: In flow cytometry, cells or beads pass a laser one at a time.
For the molecule B1, the Mean fluorescence intensity is 32.9.

Take B2: the Mean fluorescence intensity was 22.2.

In the case of B3, the Mean fluorescence intensity was 27.

Regarding B4, the Mean fluorescence intensity was found to be 28.8.

For the next test, the target named is T2, human TIM-3 extracellular domain protein with hFc tag (hTIM-3-hFc) (human, UniProt Q8TDQ0 22-200).
T2 construct: not shown: human IgG Fc fragment (hFc) of the pCpC vector
T2 sequence: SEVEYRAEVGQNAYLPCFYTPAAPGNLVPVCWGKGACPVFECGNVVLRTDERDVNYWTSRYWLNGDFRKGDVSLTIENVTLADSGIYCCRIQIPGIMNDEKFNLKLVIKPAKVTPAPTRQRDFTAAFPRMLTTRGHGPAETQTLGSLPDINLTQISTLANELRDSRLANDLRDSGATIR
Nature of the test: ELISA, coated human TIM-3 ECD protein, 0.0067 nM antibody.
For the molecule B1, the OD450 was 0.32.

B2: the OD450 came to 0.29.

As to B3, the OD450 amounted to 0.25.

The molecule B4 gave an OD450 of 0.32.

For a further test, the target named is T3, monkey TIM-3 on CHOK1 stable cell line (CHOK1-cTIM-3) (monkey).
T3 chain: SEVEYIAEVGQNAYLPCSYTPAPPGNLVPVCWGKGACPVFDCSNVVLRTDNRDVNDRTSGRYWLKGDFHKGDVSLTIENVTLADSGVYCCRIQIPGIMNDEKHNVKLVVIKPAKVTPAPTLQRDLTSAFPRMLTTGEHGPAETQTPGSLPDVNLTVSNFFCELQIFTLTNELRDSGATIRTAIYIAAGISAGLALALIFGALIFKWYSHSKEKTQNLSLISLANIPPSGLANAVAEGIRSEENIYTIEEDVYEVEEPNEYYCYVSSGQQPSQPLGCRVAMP
Put plainly: FACS, CHOK1-cTIM-3 cells, 0 nM antibody.
For B1, the Mean fluorescence intensity amounted to 2.8.

As for B2, the Mean fluorescence intensity is 2.9.

The molecule B3 returned a Mean fluorescence intensity of 3.

B4 displayed a Mean fluorescence intensity of 2.8.

A further test has as its target T2, human TIM-3 extracellular domain …. Put plainly: ELISA, coated human TIM-3 ECD protein, 0 nM antibody. (In general: ELISA stands for enzyme-linked immunosorbent assay.)
On to B1, for which the OD450 came to 0.07.

The molecule B2 had an OD450 of 0.09.

In turn, B3 returned an OD450 of 0.08.

Molecule B4 yielded an OD450 of 0.08.
